The record followed here is paper PMC10304477.

In experiment [1] the target is extracellular domain of the S protein of SARS-CoV-2 Omicron BA.3 (BA.3-S) (SARS-CoV-2 Omicron BA.3). Nature of the experiment: cryo-EM structure.
Experiment [2] concerns the target extracellular domain of the S protein of SARS-CoV-2 Omicron BA.1 (BA.1-S) (SARS-CoV-2 Omicron BA.1). Nature of the experiment: cryo-EM structure.

As for “extracellular domain of the S protein of SARS-CoV-2 Omicron BA.3 (BA.3-S) (domain or fragment)”, the stoichiometry N (as a rule, a count of units in the complex or per binding partner) in experiment [1] was determined as 3.
With “peptidase domain (PD) of human ACE2 (from UniProt Q9BYF1 19-615) (domain or fragment)”, the stoichiometry N (ACE2-PD per S trimer) in experiment [2] was found to be 2.
“extracellular domain of the S protein of SARS-CoV-2 Omicron BA.1 (BA.1-S) (domain or fragment)” displayed a stoichiometry N in experiment [2] of 3.
